# Measured values taken from article PMC4622456 (mAbs, 2015).
# Changes are numbered by the printed parent chain. Names and notes keep the numbering of the source.
# B1: 26F7 (antibody, V domains shown)
# VH: EVQLQQSGPELVKPGASVKISCKASGYTFTDYYMNWVRQSHGESLEWIGDFNHNNDVITYNPKFKGKVTLTVEKSSTTAYMELRSLSSEDSAVYYCARGLRGYYAMDYWGQGTSVTVSS
# VL: DIVLTQSPASLAVSLGQRATISCRASKSVRFSDYFYMHWYQQKPGQPPKLLIYLASNLESGVPARFSGSGSGTDFTLNIHPVEEEDAATYYCQNSRELPYTFGGGTKLEIK
# B2: mouse 6B8 (antibody, V domains shown)
# VH: QVQLQQSDAELVKPGTSVKTSCKISGNTFTDQTIHWMKQRPEQGLEWIGYIYPRDDSPKYNENFKGKATLTADKSSSTAYMQLNSLTSEDSAVYFCAIPDRSGYAWFIYWGQGTLVTVSS
# VL: DIVMTQSHKFLSTSVGDRVTITCKASRDVAIAVAWYQQKPGQSPKLLLFWASTRHTGVPDRFTGSGSRTDFTLTISNVQSEDLADYFCHQYSSYPFTFGSGTKLEIK
# B3: 15C11 (antibody, V domains shown)
# VH: EVQLQQSGPVLVKPGASVKMSCKASGYTFTDYYMNWVKQSHGKSLEWIGVIIPYNGGTSYNQKFKGKATLTVDKSSSTAYMELNSLTSEDSAVYYCARDGHRWYFDVWGTGTTVTVSS
# VL: DVVMTQTPLSLPVSLGDQASISCRSSQSLVHSNGNTYLHWYLQKPGQSPKLLIYKVSNRFSGVPDRFSGSGSGTDFTLKINRVEAEDLGVYFCSQSTHVPYTFGGGTQLEIK
# B4: 34G3 (antibody, V domains shown)
# VH: EFQLQQSGPELVKPGASVKISCKASGYSFTDYNMNWVKQSKGKSLEWIGVIIPNYGFTSYNQNFKGKATLTVDQSSSTAHMQLNSVTSEDSAVYYCVRDGGILLWYLDVWGTGTTVTVSS
# VL: B3 VL with N81S, Q108K, K112N
# B5: 18E5 (antibody, V domains shown)
# VH: EVQLQQSGPELVKPGAAVKMSCKASGYTFTRYLIHWVKQKPGQGLEWIGYINPYNDGTKYNEKFKGKATLTSDKSSSTAYMELSSLTSEDSAVYYCTSNWDLDYWGQGTTLTVSS
# VL: DIVMTQSPATLSVTPGDRVSLSCRASQSISDYLYWYQQKSHESPRLLIKFASQSISGIPSRFTGSGSGSDFTLSIDSVEPDDVGVFFCQNGHSFPFTFGGGTKLEIK
# B6: BI 655066, NS0 derived (human IgG1 Fc L234A, L235A) (antibody, V domains shown)
# VH: QVQLVQSGAEVKKPGSSVKVSCKASGYTFTDQTIHWMRQAPGQGLEWIGYIYPRDDSPKYNENFKGKVTITADKSTSTAYMELSSLRSEDTAVYYCAIPDRSGYAWFIYWGQGTLVTVSS
# VL: DIQMTQSPSSLSASVGDRVTITCKASRDVAIAVAWYQQKPGKVPKLLIYWASTRHTGVPSRFSGSGSRTDFTLTISSLQPEDVADYFCHQYSSYPFTFGSGTKLEIK
# B7: BI 655066, CHO derived (antibody, V domains shown)
# VH: B6 VH
# VL: B6 VL
# B8: BI 655067 (VH 05-Vk65 IgG1) (antibody, V domains shown)
# VH: B6 VH with Y27F, M37V, I48M, I70L
# VL: B6 VL with I48L, Y49F, S60D, R68G, V83L, F87Y, S100Q
# B9: VH 36-Vk66 IgG1 (antibody, V domains shown)
# VH: B6 VH with V20T, Y27G, M37V, A40R, I48M, K67R
# VL: B6 VL
# B10: BI 655066 (VH 02-Vk66 IgG1) (antibody, V domains shown)
# VH: B6 VH
# VL: B6 VL
# B11: VH 65-Vk66 IgG1 (antibody, V domains shown)
# VH: B6 VH with Y27G, M37V, I48M, K67R, I70L, Y95F, I98R
# VL: B6 VL
# B12: VH 36-Vk65 IgG1 (antibody, V domains shown)
# VH: B6 VH with V20T, Y27G, M37V, A40R, I48M, K67R
# VL: B6 VL with I48L, Y49F, S60D, R68G, V83L, F87Y, S100Q
# B13: VH 02-Vk78 IgG1 (antibody, V domains shown)
# VH: B6 VH
# VL: B6 VL with I48L, Y49F, S60D, V83L, F87Y
# B14: BI 655068 (VH 02-Vk65 IgG1) (antibody, V domains shown)
# VH: B6 VH
# VL: B6 VL with I48L, Y49F, S60D, R68G, V83L, F87Y, S100Q
# B15: VH 65-Vk78 IgG1 (antibody, V domains shown)
# VH: B6 VH with Y27G, M37V, I48M, K67R, I70L, Y95F, I98R
# VL: B6 VL with I48L, Y49F, S60D, V83L, F87Y
# B16: VH 36-Vk78 IgG1 (antibody, V domains shown)
# VH: B6 VH with V20T, Y27G, M37V, A40R, I48M, K67R
# VL: B6 VL with I48L, Y49F, S60D, V83L, F87Y
# B17: BI 655069 (VH 05-Vk66 IgG1) (antibody, V domains shown)
# VH: B6 VH with Y27F, M37V, I48M, I70L
# VL: B6 VL
# B18: VH 65-Vk65 IgG1 (antibody, V domains shown)
# VH: B6 VH with Y27G, M37V, I48M, K67R, I70L, Y95F, I98R
# VL: B6 VL with I48L, Y49F, S60D, R68G, V83L, F87Y, S100Q
# B19: recombinant chimeric 6B8 (antibody, V domains shown)
# VH: B2 VH
# VL: B2 VL
# Molecular target: T1, recombinant human IL23 (human, UniProt Q9NPF7;P29460)
# T1 sequence (Q9NPF7 20-189, chain 1 of 2): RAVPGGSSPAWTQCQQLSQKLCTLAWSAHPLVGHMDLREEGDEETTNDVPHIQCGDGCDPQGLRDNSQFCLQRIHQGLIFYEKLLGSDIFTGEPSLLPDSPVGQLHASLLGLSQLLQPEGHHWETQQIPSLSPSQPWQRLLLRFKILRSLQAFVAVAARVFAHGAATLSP
# T1 sequence (P29460 23-328, chain 2 of 2): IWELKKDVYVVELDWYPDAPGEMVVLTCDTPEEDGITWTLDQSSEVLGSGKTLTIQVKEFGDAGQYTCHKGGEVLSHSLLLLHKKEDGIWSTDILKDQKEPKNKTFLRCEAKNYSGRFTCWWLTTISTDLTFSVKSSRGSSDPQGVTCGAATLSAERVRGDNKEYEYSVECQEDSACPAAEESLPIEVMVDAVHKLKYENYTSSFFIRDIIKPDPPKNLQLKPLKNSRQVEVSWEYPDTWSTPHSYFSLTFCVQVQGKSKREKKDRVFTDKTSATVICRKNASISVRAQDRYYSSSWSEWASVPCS
# Test: cell-based or functional assay
row,"Inhibition of IL23 induced IL17 production in mouse splenocytes (IC50, pM) [pM]",Binder
1,9,B1
2,8,B2
3,197,B3
4,8,B4
5,< 13,B5

# Molecular target: T1, recombinant human IL23
# Test: SPR
row,Kd [nM],Binder
1,< 0.01,B6
2,< 0.01,B7

# Molecular target: T1, recombinant human IL23
# Test: SPR
# Remark: another data set of the same source
row,Kd [nM],Binder
1,< 0.01,B8
2,< 0.01,B9
3,< 0.01,B10
4,< 0.01,B11
5,0.096,B12
6,< 0.01,B13
7,0.015,B14
8,< 0.01,B15
9,< 0.01,B16
10,0.036,B17
11,0.107,B18

# Molecular target: recombinant cynomolgus IL23 (Macaca fascicularis, UniProt H6WS56;H6WS55)
# Test: SPR
row,Kd [nM],Binder
1,< 0.01,B8
2,< 0.01,B10
3,< 0.01,B14
4,0.016,B17

# Molecular target: T1, recombinant human IL23
# Test: BLI
row,kon(serum)/kon(buffer),Binder
1,1.2,B8
2,1.2,B10
3,1,B14
4,1.2,B17

# Molecular target: T1, recombinant human IL23
# Test: BLI
# Remark: another data set of the same source
row,Kd [nM],Binder
1,0.028,B1
2,0.026,B3
3,0.033,B4
4,< 0.01,B5

# Molecular target: T1, recombinant human IL23
# Test: SPR
# Remark: another data set of the same source
row,Kd [nM],Binder
1,0.025,B2
2,< 0.01,B19

# Molecular target: recombinant mouse IL23 (Mus musculus, UniProt Q9EQ14;P43432)
# Sequence (Q9EQ14 22-196, chain 1 of 2): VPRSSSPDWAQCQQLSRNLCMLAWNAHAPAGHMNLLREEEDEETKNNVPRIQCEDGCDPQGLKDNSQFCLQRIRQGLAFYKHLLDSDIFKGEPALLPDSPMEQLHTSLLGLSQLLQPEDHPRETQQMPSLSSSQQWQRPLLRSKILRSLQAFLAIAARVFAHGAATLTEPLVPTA
# Sequence (P43432 23-335, chain 2 of 2): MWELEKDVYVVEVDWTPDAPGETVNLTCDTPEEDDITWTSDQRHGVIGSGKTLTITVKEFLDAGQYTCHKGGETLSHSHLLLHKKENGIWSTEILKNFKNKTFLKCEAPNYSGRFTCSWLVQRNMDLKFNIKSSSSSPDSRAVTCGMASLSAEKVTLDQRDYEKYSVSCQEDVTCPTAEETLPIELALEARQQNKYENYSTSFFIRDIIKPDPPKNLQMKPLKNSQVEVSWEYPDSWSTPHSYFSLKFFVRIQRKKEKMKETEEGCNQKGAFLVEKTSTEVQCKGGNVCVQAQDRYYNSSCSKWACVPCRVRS
# Test: SPR
row,binding result,Binder
1,no binding (tested: 1.2 μM),B8
2,no binding (tested: 1.2 μM),B10
3,no binding (tested: 1.2 μM),B14
4,no binding (tested: 1.2 μM),B17

# Molecular target: recombinant rat IL23 (Rattus norvegicus, UniProt Q91Z84;Q9R278)
# Test: SPR
row,binding result,Binder
1,no binding (tested: 1.2 μM),B8
2,no binding (tested: 1.2 μM),B10
3,no binding (tested: 1.2 μM),B14
4,no binding (tested: 1.2 μM),B17
